Measurements taken from US20260109763A1 (DENALI THERAPEUTICS, published 2026).
Read-outs that look alike come from different tables or passages of the source.

Assays:
[1] = biological target: T1, human PILRB extracellular domain (recombinant) (human, UniProt Q9UKJ0 20-191); assay: SPR
T1 construct: also called hPILRB

[2] = biological target: T2, human PILRA G78 extracellular domain (recombinant hPILRA ECD) (human, UniProt Q9UKJ1 20-197); assay: SPR
T2 construct: also called hPILRA G78

[3] = biological target: T3, human PILRA R78 extracellular domain (recombinant) (human, UniProt Q9UKJ1 20-197); assay: SPR
T3 construct: also called hPILRA R78
T3 sequence (Q9UKJ1 20-197 limits assumed): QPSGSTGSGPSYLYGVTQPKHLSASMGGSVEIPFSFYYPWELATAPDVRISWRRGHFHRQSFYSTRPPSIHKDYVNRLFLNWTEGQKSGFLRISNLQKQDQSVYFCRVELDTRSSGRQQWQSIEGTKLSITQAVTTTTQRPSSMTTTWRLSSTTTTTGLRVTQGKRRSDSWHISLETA

[4] = biological target: T1, human PILRB extracellular domain …; assay: SPR; remark: listed apart in the source
[5] = biological target: T4, cynomolgus monkey PILRA extracellular domain (recombinant) (cynomolgus monkey); assay: SPR
T4 construct: also called cynoPILRA; Cyno PILRA
T4 sequence (chain, as listed by the source limits assumed): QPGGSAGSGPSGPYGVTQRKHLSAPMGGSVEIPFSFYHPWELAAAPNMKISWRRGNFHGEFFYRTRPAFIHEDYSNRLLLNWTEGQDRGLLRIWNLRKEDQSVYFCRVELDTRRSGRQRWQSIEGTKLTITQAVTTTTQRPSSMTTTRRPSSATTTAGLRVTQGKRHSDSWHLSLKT

human PILRA G78 on cells [6] = biological target: T5, human PILRA G78 on cells (human, UniProt Q9UKJ1 20-303); assay: cell-based or functional assay
T5 sequence (Q9UKJ1 20-303 R78G limits assumed): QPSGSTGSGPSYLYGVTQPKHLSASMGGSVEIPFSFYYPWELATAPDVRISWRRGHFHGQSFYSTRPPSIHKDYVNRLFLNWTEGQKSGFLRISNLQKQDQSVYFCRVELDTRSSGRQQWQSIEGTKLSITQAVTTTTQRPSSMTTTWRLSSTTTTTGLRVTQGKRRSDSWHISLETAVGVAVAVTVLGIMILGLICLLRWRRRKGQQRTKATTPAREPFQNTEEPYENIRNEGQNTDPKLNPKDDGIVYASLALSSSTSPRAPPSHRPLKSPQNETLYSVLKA

human PILRA R78 on cells [7] = biological target: T6, human PILRA R78 on cells (human, UniProt Q9UKJ1 20-303); assay: cell-based or functional assay
T6 sequence (Q9UKJ1 20-303 limits assumed): as the sequence (Q9UKJ1 20-303 R78G limits assumed) above, with G59R counted along it

human PILRA G78 on cells [8] = biological target: T5, human PILRA G78 on cells; assay: flow cytometry on HEK293 cells expressing hPILRA G78
[9] = biological target: T2, human PILRA G78 extracellular domain …; assay: SPR, Biacore 8K; hPILRA ECD; antibody with wild-type Fc
Procedure: (§1) Antibodies were captured on Biacore™ Series S CM5 sensor chips immobilized with mouse anti-human Fab (human Fab capture kit from GE Healthcare) followed by injections of serial 3-fold dilutions of recombinant ECD reagents at a flow rate of 30 μL/min. Each sample was analyzed using a 3-minute association followed by a 10-minute dissociation. After each injection, the sensor chip was regenerated using a 5 0 mM glycine pH2.0 regeneration buffer. A 1:1 Languir model of simultaneous fitting of kₒₙ and koff was used for kinetics analysis.
Characterization for binding affinities of the humanized antibodies to hPILRA ECD were measured by SPR using a Biacore 8K instrument (Table 7).

human PILRA G78 on cells [10] = biological target: T5, human PILRA G78 on cells; assay: flow cytometry on PILRA G78 expressing CHO-K1 cells (FIG. 1H)
Procedure: (§2) PILRA G78 or R78 overexpressing HEK293 cells were stained with NucBlue Live cell stain for 30 mins at RT. […] Cell lines were run in duplicate to account for intra-variability, for a total of N=3. The same protocol was used for CHO-K1 cells expressing hPILRA G78.

human PILRA R78 on cells [11] = biological target: T6, human PILRA R78 on cells; assay: flow cytometry on PILRA R78 expressing HEK293 cells (FIG. 1F); HEK293 cells expressing PILRA R78
Procedure: as §2

human PILRA G78 on cells [12] = biological target: T5, human PILRA G78 on cells; assay: cell-based or functional assay; remark: listed apart in the source
[13] = biological target: T1, human PILRB extracellular domain …; assay: SPR, Biacore 8K, recombinant ECD
[14] = biological target: T4, cynomolgus monkey PILRA extracellular …; assay: SPR, Biacore 8K, recombinant ECD
human PILRA G78 on cells [15] = biological target: T5, human PILRA G78 on cells; assay: flow cytometry on HEK293 cells expressing hPILRA G78; remark: listed apart in the source
Procedure: Parental HEK293 cells were labeled with NucBlue Live ReadyProbes Reagent for 30 mins. […] Antibody binding to the cells was detected by FACS and median fluorescence intensity (MFI) was derived from data analysis performed with the FLOJO software (FIGS. 1A-1C).

[16] = biological target: T2, human PILRA G78 extracellular domain …; assay: SPR, Biacore 8K; antibody captured via anti-human Fab, recombinant ECD injected; 1:1 fit;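 note: CM5 sensor chip, ECD analyte in threefold dilution series at 30 µL/min, 3 min association and 10 min dissociation, kon and koff fitted simultaneously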
Procedure: as §1

T2 sequence (Q9UKJ1 20-197 R78G limits assumed): as the sequence (Q9UKJ1 20-197 limits assumed) above, with R59G counted along it
T1 sequence (Q9UKJ0 20-191 limits assumed): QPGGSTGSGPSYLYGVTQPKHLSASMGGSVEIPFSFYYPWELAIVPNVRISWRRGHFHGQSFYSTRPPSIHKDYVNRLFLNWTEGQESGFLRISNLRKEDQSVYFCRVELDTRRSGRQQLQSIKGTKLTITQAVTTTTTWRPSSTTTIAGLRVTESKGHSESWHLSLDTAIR

| Kd [1] | Kd [2] | Kd [3] | Kd [4] | Kd [5] | pSTAT3 S727 induction, EC50 (nM) (human PILRA G78 on cells [6]) | pSTAT3 S727 induction, Fold Over Background (human PILRA G78 on cells [6]) | pSTAT3 Y705 induction, EC50 (nM) (human PILRA G78 on cells [6]) | pSTAT3 Y705 induction, Fold Over Background (human PILRA G78 on cells [6]) | pSTAT3 S727 induction, EC50 (nM) (human PILRA R78 on cells [7]) | pSTAT3 S727 induction, Fold Over Background (human PILRA R78 on cells [7]) | pSTAT3 Y705 induction, EC50 (nM) (human PILRA R78 on cells [7]) | pSTAT3 Y705 induction, Fold Over Background (human PILRA R78 on cells [7]) | EC50 (human PILRA G78 on cells [8]) | Kd [9] | EC50 (human PILRA G78 on cells [10]) | EC50 (human PILRA R78 on cells [11]) | Binder | further results |
| --- | --- | --- | --- | --- | --- | --- | --- | --- | --- | --- | --- | --- | --- | --- | --- | --- | --- | --- |
| 42 to 97 nM | – | – | – | – | – | – | – | – | – | – | – | – | – | – | – | – | Anti-PILRA antibody clone 36 (antibody, V domains shown, Humanized) VH: EVQLVQSGAEVKKPGASVKVSCKASGYTFTEYYMYWVRQAPGQGLELIGRIDPEDGGTDYIEKFKNRVTLTADTSTSTAYLELSSLRSEDTAVYYCATTIRGTVFAFWGQGTLVTVSS VL: DIQMTQSPSSLSASVGDRVTITCRPSEDIYNGLAWYQQKPGKAPKLLIYNANSLHTGVPSRFSGSGSGTDYTLTISSLQPEDFATYFCQQYYDYPLTFGQGTKVEIK | – |
| – | 2.8 nM | 47 nM | 117 nM | 7.3 nM | 20.1 nM | 23.6 fold | 12.2 nM | 31.4 fold | 14.6 nM | 28.5 fold | 7.55 nM | 36.2 fold | 21.4 nM | 0.495 nM | 18.2 nM | 3.7 nM | Anti-PILRA antibody clone 23 (antibody, V domains shown, Humanized; also called Ab.23) VH: EVQLVQSGAEVKKPGASVKVSCKASGYTFTEYYMYWVRQAPGQGLELIGRIDPEDGGTDYVEKFKNRATLTADTSTSTAYLELSSLRSEDTAVYFCASTIRGTVFVYWGQGTLVTVSS VL: DIQMTQSPSSLSASVGDRVTITCRPSEDIYNGLAWYQQKPGKAPKLLIYNANSLHTGVPSRFSGSGSGTDYTLTISSLQPEDFATYYCQQYYDYPLTFGQGTKVEIK | – |
| 100 to 150 nM | – | – | – | – | – | – | – | – | – | – | – | – | – | – | – | – | Anti-PILRA antibody clone 37 (antibody, V domains shown, Humanized) VH: EVQLVQSGAEVKKPGASVKVSCKASGYTFTEYYMYWVRQAPGQGLELIGRIDPEDGGTDYIEKFKNRVTLTADTSTSTAYLELSSLRSEDTAVYYCATTIRGTVFAFWGQGTLVTVSS VL: DIQMTQSPSSLSASVGDRVTITCRASEDIFNGLAWYQQKPGKSPKLLIYNAKTLHTGVPSRFSGSGSGTDYTLTISSLQPEDFATYYCQQYYDYPLTFGQGTKVEIK | – |
| – | 0.65 nM | 10 nM | 95 nM | 0.72 nM | 17.5 nM | 32.2 fold | 16.9 nM | 33.5 fold | 12.7 nM | 24.8 fold | 5.66 nM | 38.2 fold | 11.2 nM | 0.917 nM | 9 nM | 2.7 nM | Anti-PILRA antibody clone 15 (antibody, V domains shown, Humanized; also called Ab.15) VH: EVQLVQSGAEVKKPGASVKVSCKASGYTFTEYYMYWVRQAPGQGLELIGRIDPEDGGTDYIEKFKNRSTLTADTSTSTAYLELSSLRSEDTAVYFCATTIRGTVFAFWGQGTLVTVSS VL: DIQMTQSPSSLSASVGDRVTITCRASEDIFNGLAWYQQKPGKSPKLLIYNAKTLHTGVPSRFSGSGSGSDYTLTISSLQPEDFATYFCQQYYDYPLTFGQGTKVEIK | – |
| – | – | – | – | – | – | – | – | – | – | – | – | – | – | – | – | – | Anti-PILRA antibody clone 9 (antibody, V domains shown, also called Ab; Clone 9) VH: QVQLQESGPGLVKPSGTLSLTCAVSGGSISSNNWWSWVRQPPGKGLEWIGEIYHFGTTTYNPSLKSRVTISVDKSKNQFSLKLSSLTAADTAVYYCARTLRDFYYYMDVWGKGTTVTVSS VL: DIHMTQSPSSLSASVGDRVTITCRTSQNINTYLNWYQQRPGRAPKLLIYAASSLQSGVPSRFSGSGSGTDFILSISSLQPEDFATYYCQQSFNIPLTFGGGTKVEIK | pSTAT3 Y705 induction, EC50 (nM) (human PILRA G78 on cells [12]): 5.93 nM; pSTAT3 Y705 induction, Fold Over Background (human PILRA G78 on cells [12]): 16.9 fold; binding result [13]: no binding; binding result [14]: no binding; EC50 (human PILRA G78 on cells [15]): 1.28 nM; Kd [16]: 1.6 nM |
